Measurements reported in paper PMC11940775, “A Bifunctional Phosphoglucomutase/Phosphomannomutase from Thermococcus kodakarensis: Biophysical Analysis and Cryo-EM Structure” (Biomolecules, 2025).

Biological target: the molecule itself
Experiment: SEC; HiLoad 16/60 Superdex 200 pg, 50 mM HEPES pH 7.0 + 200 mM NaCl, against standard protein markers; self-association

B1: Phosphoglucomutase/phosphomannomutase from Thermococcus kodakarensis (PGMTk) (enzyme)
chain: MGKLFGTFGVRGIANEEITPEFALKIGMAFGTLLKREGRERPLVVVGRDTRVSGEMLKDALISGLLSTGCDVIDVGIAPTPAIQWATNHFNADGGAVITASHNPPEYNGIKLLEPNGMGLKKEREAIVEELFFSEDFHRAKWNEIGELRKEDIIKPYIEAIKNRVDVEAIKKRRPFVVVDTSNGAGSLTLPYLLRELGCKVVSVNAHPDGHFPARNPEPNEENLKGFMEIVKALGADFGVAQDGDADRAVFIDENGRFIQGDKTFALVADAVLRENGGGLLVTTIATSNLLDDIAKRNGAKVMRTKVGDLIVARALLENNGTIGGEENGGVIFPDFVLGRDGAMTTAKIVEIFAKSGKKFSELIDELPKYYQFKTKRHVEGDRKAIVAKVAELAEKKGYKIDTTDGTKIIFDDGWVLVRASGTEPIIRIFSEAKSEEKAREYLELGIKLLEEALKG
notes: Phosphoglucomutase/phosphomannomutase PGMTk, product of gene Tk1108 of Thermococcus kodakarensis, UniProt Q68BJ6; His6 and a TEV protease site were put upstream of the gene; also called Tk1108; TK1108; source: E. coli Rosetta 2(DE3)pLysS, purified (heat treatment at 85 °C, Ni-NTA, Superdex 200 gel filtration)
With B1 the “stoichiometry N” value was 4.
